Source: patent US20190211317A1, “PEPTIDES AND NANOPARTICLES FOR INTRACELLULAR DELIVERY OF GENOME-EDITING MOLECULES” (Aadigen, LLC, priority 2016, published 2019)

Target: CY5-CAS9:sgRNA complex (1:1 molar ratio) (S. pyogenes) (UniProt Q99ZW2)
Assay: fluorescence titration of 5 nM CY5-CAS9:sgRNA (1:1) with increasing peptide, quadratic fit

CADY (peptide)
Kd: 21 nM
